pKd: −log10 of the molar value.
Legend:
Assay in all cases: IEDB peptide-MHC binding, purified MHC/competitive/radioactivity; filed as Kd, often an IC50 or EC50 that approximates it; ≥ and ≤ were set here for values at or beyond the usual limits of such assays
[1] = target: HLA-A*68:01
[2] = target: HLA-A*31:01
[3] = target: HLA-A*33:01
[4] = target: HLA-A*11:01
[5] = target: HLA-A*03:01
[6] = source organism: Vaccinia virus WR
[7] = source organism: Dengue virus 4 Dominica/814669/1981
[8] = source organism: Dengue virus 1 Brazil/97-11/1997
[9] = source organism: SARS coronavirus Tor2
[10] = source organism: Lymphocytic choriomeningitis virus (strain Armstrong)
[11] = source organism: Lassa virus GA391
[12] = source organism: Dengue virus 2 Jamaica/1409/1983
[13] = source organism: Mammarenavirus choriomeningitidis
[14] = source organism: Lassa virus Josiah
[15] = source organism: Dengue virus 3 Martinique/1243/1999

| Sequence | pKd [1, 6] | pKd [2, 6] | pKd [3, 6] | pKd [4, 6] | pKd [5, 6] | further results |
| --- | --- | --- | --- | --- | --- | --- |
| LIVSLCPTKK | 6.46 | 4.94 | ≤ 4.15 | 7.24 | 6.65 | – |
| LLDSIKMIY | 6.14 | 5.47 | ≤ 4.31 | 4.75 | 5.33 | – |
| LMIVAKHER | – | – | – | – | – | pKd [2, 7]: 7.30 |
| LMTLMKGASR | – | – | – | – | – | pKd [2, 7]: 7.14 |
| LSKSEFNTYK | – | – | – | – | – | pKd [4, 8]: 6.25 |
| LSTLNFNNLR | 7.92 | 7.43 | 5.82 | 6.68 | 5.43 | – |
| LVTFKTAHAK | – | – | – | – | – | pKd [4, 8]: 6.32; pKd [5, 8]: 7.58 |
| MIKNLTQLFK | 8.79 | 8.37 | 6.50 | 9.12 | 9.08 | – |
| MINYYNEMSR | 7.87 | 7.02 | 6.39 | 7.27 | 6.84 | – |
| MSLYMAISPK | – | – | – | – | – | pKd [1, 9]: 7.97; pKd [2, 9]: 7.16; pKd [3, 9]: 5.73; pKd [4, 9]: 9.70; pKd [5, 9]: 9.59 |
| MTSRMLLNR | – | – | – | – | – | pKd [1, 8]: 7.26; pKd [2, 8]: ≤ 4.63; pKd [3, 8]: 8.61; pKd [4, 8]: 7.39 |
| MWQLMYFHRR | – | – | – | – | – | pKd [2, 8]: ≤ 4.59; pKd [3, 8]: 7.95 |
| NFFVFIHMVR | 9.00 | 7.73 | 8.10 | 6.14 | 6.76 | – |
| NGQFIHFYR | – | – | – | – | – | pKd [1, 10]: 7.86; pKd [2, 10]: 8.44; pKd [3, 10]: ≤ 4.30; pKd [4, 10]: 5.60; pKd [5, 10]: 5.08 |
| NIRLTDTEY | ≤ 4.11 | ≤ 4.11 | ≤ 4.11 | ≤ 4.11 | ≤ 4.11 | – |
| NISIISIRPR | 8.29 | 7.30 | 6.55 | 6.06 | 5.58 | – |
| NLDLFMSHVK | 6.07 | 5.11 | 5.54 | 7.16 | 7.71 | – |
| NTPVSMTYLY | 6.38 | ≤ 4.15 | ≤ 4.15 | 5.85 | ≤ 4.34 | – |
| NYSRYWYLNH | – | – | – | – | – | pKd [1, 11]: ≤ 4.15; pKd [2, 11]: 5.10; pKd [3, 11]: 5.87; pKd [4, 11]: ≤ 4.51; pKd [5, 11]: 4.79 |
| PSILPSLIK | ≤ 4.39 | ≤ 4.43 | ≤ 4.11 | 6.42 | 5.73 | – |
| QILDNAAKY | ≤ 4.11 | ≤ 4.11 | ≤ 4.11 | 5.06 | ≤ 4.11 | – |
| QILMKTANNY | 5.30 | 5.62 | 5.05 | 6.06 | 6.97 | – |
| QQQQGQTVTK | – | – | – | – | – | pKd [1, 9]: 4.95; pKd [2, 9]: ≤ 4.56; pKd [3, 9]: ≤ 4.15; pKd [4, 9]: 6.31; pKd [5, 9]: 4.99 |

| Sequence | pKd [1, 6] | pKd [2, 6] | pKd [3, 6] | pKd [4, 6] | pKd [5, 6] | further results |
| --- | --- | --- | --- | --- | --- | --- |
| RAFDIYNEK | – | – | – | – | – | pKd [1, 9]: 6.42; pKd [2, 9]: 6.97; pKd [3, 9]: ≤ 4.11; pKd [4, 9]: 8.45; pKd [5, 9]: 7.97 |
| RFVKFNDYRK | 7.29 | 7.43 | 5.74 | 6.37 | 6.29 | – |
| RLQMAGVEVR | 6.04 | 6.93 | 5.31 | 4.83 | 5.83 | – |
| RSCTLPPLR | – | – | – | – | – | pKd [2, 12]: 8.34 |
| RSNAILHNIY | 5.99 | 6.21 | ≤ 4.15 | 5.87 | 5.43 | – |
| RSTAIKVTK | 7.86 | 8.90 | 4.95 | 8.17 | 6.67 | – |
| RVIDPRRCMK | – | – | – | – | – | pKd [2, 12]: 8.36 |
| RVSTVQQLTK | – | – | – | – | – | pKd [4, 12]: 6.69; pKd [5, 12]: 7.76 |
| SAFNKKHFDH | – | – | – | – | – | pKd [1, 13]: ≤ 4.44; pKd [2, 13]: 4.90; pKd [3, 13]: ≤ 4.54; pKd [4, 13]: 5.90; pKd [5, 13]: ≤ 4.65 |
| SFGGASCCLY | – | – | – | – | – | pKd [1, 9]: 6.74; pKd [2, 9]: 5.60; pKd [3, 9]: 5.42; pKd [4, 9]: 6.85; pKd [5, 9]: 6.52 |
| SFYLISIFLH | – | – | – | – | – | pKd [1, 14]: 5.49; pKd [2, 14]: 6.80; pKd [3, 14]: 6.55; pKd [4, 14]: 4.77; pKd [5, 14]: 5.99 |
| SLRPQPTELK | – | – | – | – | – | pKd [5, 12]: 8.52 |
| SLRTTTVTGK | – | – | – | – | – | pKd [5, 8]: 8.20 |
| SNMLSIINK | – | – | – | – | – | pKd [4, 15]: 6.94 |
| SQILPDPLK | – | – | – | – | – | pKd [1, 9]: ≤ 4.30; pKd [2, 9]: ≤ 4.60; pKd [3, 9]: ≤ 4.25; pKd [4, 9]: 5.34; pKd [5, 9]: 4.76 |
| SSNVANYQK | – | – | – | – | – | pKd [1, 9]: 7.26; pKd [2, 9]: 5.39; pKd [3, 9]: ≤ 4.11 |
| TTLWEGSPGK | – | – | – | – | – | pKd [4, 8]: 7.07 |
| TTRMENLLWK | – | – | – | – | – | pKd [4, 15]: 6.99; pKd [5, 15]: 6.99 |
| TWMSAEGAWR | – | – | – | – | – | pKd [2, 15]: 6.61; pKd [3, 15]: 6.43 |
| VSILLSSLLK | – | – | – | – | – | pKd [4, 8]: 7.31; pKd [5, 8]: 7.96 |
| VSTPQGLVK | – | – | – | – | – | pKd ([4]; source organism: Dengue virus 4 Philippines/H241/1956): 5.16 |
| YLALMATFK | – | – | – | – | – | pKd [5, 8]: 8.15 |
